Results: patent US20030092616A1, “STAT6 activation gene” (priority 2001, published 2003)

System: STAT6
Assay: Screening of full-length cDNA clones for promotion of STAT6 activation (luciferase reporter N4×8-luc)
Format: cell-based
Settings: NIH3T3 cells cotransfected with N4×8-luc reporter and cDNA plasmid; 48 h culture, then mouse IL-4 0.5 ng/ml for 6 h
Procedure, shortened: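 Promotion of STAT6 activation scored as increase in luciferase signal over null-vector control cells. NIH3T3 cells carried N4×8-luc (100 ng) plus cDNA clone; after 48 h culture, 6 h stimulation with 0.5 ng/ml (final) mouse IL-4 preceded reading.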

B1: 89 (nucleic acid, listed as Homo sapiens)
chain: GTAGTGCGGCGCTGTTTAAAGATGGCGGCGGAGGAACCTCAGCAGCAGAAGCAGGAGCCGCTGGGCAGCGACTCCGAAGGTGTTAACTGTCTGGCCTATGATGAAGCCATCATGGCTCAGCAGGACCGAATTCAGCAAGAGATTGCTGTGCAGAACCCTCTGGTGTCAGAGCGGCTGGAGCTCTCGGTCCTATACAAGGAGTATGCTGAAGATGACAACATCTATCAACAGAAGATCAAGGACCTCCACAAAAAGTACTCGTACATCCGCAAGACCAGGCCTGACGGCAACTGTTTCTATCGGGCTTTCGGATTCTCCCACTTGGAGGCACTGCTGGATGACAGCAAGGAGTTGCAGCGGTTCAAGGCTGTGTCTGCCAAGAGCAAGGAAGACCTGGTGTCCCAGGGCTTCACTGAATTCACAATTGAGGATTTCCACAACACGTTCATGGACCTGATTGAGCAGGTGGAGAAGCAGACCTCTGTCGCCGACCTGCTGGCCTCCTTCAATGACCAGAGCACCTCCGACTACCTTGTGGTCTACCTGCGGCTGCTCACCTCGGGCTACCTGCAGCGCGAGAGCAAGTTCTTCGAGCACTTCATCGAGGGTGGACGGACTGTCAAGGAGTTCTGCCAGCAGGAGGTGGAGCCCATGTGCAAGGAGAGCGACCACATCCACATCATTGCGCTGGCCCAGGCCCTCAGCGTATCCATCCAGGTGGAGTACATGGACCGCGGCGAGGGCGGCACCACCAATCCGCACATCTTCCCTGAGGGCTCCGAGCCCAAGGTCTACCTTCTCTACCGGCCTGGACACTACGATATCCTCTACAAATAGGGCTGGCTCCAGCCCGCTGCTGCCCTGCTGCCCCCCTCTGCCAGGCGCTAGACATGTACAGAGGTTTTTCTGTGGTTGTAAATGGTCCTATTTCACCCCCTTCTTCCTGTCACATGACCCCCCCCCATGTTTTATTAAAGGGGGTGCTGGTGGTG
modifications: CDS (22)..(834)
  Activity = (luciferase activity of the gene of each SEQ ID NO:)/(luciferase activity of pME18S-FL3): 10.2

B2: 295 (nucleic acid, listed as Homo sapiens)
chain: ACTCGTGCGTGAGGCGAGAGGAGCCGGAGACGAGACCAGAGGCCGAACTCGGGTTCTGACAAGATGGCCGGGCTGCCCCGCAGGATCATCAAGGAAACCCAGCGTTTGCTGGCAGAACCAGTTCCTGGCATCAAAGCCGAACCAGATGAGAGCAACGCCCGTTATTTTCATGTGGTCATTGCTGGCCCTCAGGATTCCCCCTTTGAGGGAGGGACTTTTAAACTTGAACTATTCCTTCCAGAAGAATACCCAATGGCAGCCCCTAAAGTACGTTTCATGACCAAAATTTATCATCCTAATGTAGACAAGTTGGGAAGAATATGTTTAGATATTTTGAAAGATAAGTGGTCCCCAGCACTGCAGATCCGCACAGTTCTGCTATCGATCCAGGCCTTGTTAAGTGCTCCCAATCCAGATGATCCATTAGCAAATGATGTAGCGGAGCAGTGGAAGACCAACGAAGCCCAAGCCATAGAAACAGCTAGAGCATGGACTAGGCTATATGCCATGAATAATATTTAAATTGATACGATCATCAAGTGTGCATCACTTCTCCTGTTCTGCCAAGACTTCCTCCTCTTTGTTTGCATTTAATGGACACAGTCTTAGAAACATTACAGAATAAAAAAGCCCAGACATCTTCAGTCCTTTGGTGATTAAATGCACATTAGCAAATCTATGTCTTGTCCTGATTCACTGTCATAAAGCATGAGCAGAGGCTAGAAGTATCATCTGGATTGTTGTGAAACGTTTAAAAGCAGTGGCCCCTCCCTGCTTTTATTCATTTCCCCCATCCTGGTTTAAGTATAAAGCACTGTGAATGAAGGTAGTTGTCAGGTTAGCTGCAGGGGTGTGGGTGTTTTTATTTTATTTTATTTTATTTTATTTTTGAGGGGGGAGGTAGTTTAATTTTATGGGCTCCTTTCCCCCTTTTTTGGTGATCTAATTGCATTGGTTAAAAGCAGCTAACCAGGTCTTTAGAATATGCTCTAGCCAAGTCTAACTTTATTTAGACGCTGTAGATGGACAAGCTTGATTGTTGGAACCAAAATGGGAACATTAAACAAACATCACAGCCCTCACTAATAACATTGCTGTCAAGTGTAGATTCCCCCCTTCAAAAAAAGCTTGTGACCATTTTGTATGGCTTGTCTGGAAACTTCTGTAAATCTTATGTTTTAGTAAAATATTTTTTGTTATTCT
modifications: CDS (64)..(519)
  Activity = (luciferase activity of the gene of each SEQ ID NO:)/(luciferase activity of pME18S-FL3): 31.0

B3: 85 (nucleic acid, listed as Homo sapiens)
chain: ATTTCCGGTTCCGGCTGCGGGCCGGTGAAGATATGGCGGCGTCTGCGTCTGCAGCTGCAGGGGAGGAGGACTGGGTCCTTCCCTCTGAAGTTGAAGTATTGGAGTCCATCTATCTAGATGAACTACAGGTGATTAAAGGAAATGGCAGAACTTCACCATGGGAGATCTACATCACTTTGCATCCTGCCACTGCAGAGGACCAGGATTCACAGTATGTCTGCTTCACTCTGGTGCTTCAGGTCCCAGCAGAGTATCCCCATGAGGTGCCACAGATCTCTATCCGAAATCCCCGAGGACTTTCAGATGAACAGATCCACACGATCTTACAGGTGCTGGGCCACGTGGCCAAGGCTGGGCTGGGCACTGCCATGCTGTATGAACTCATTGAGAAAGGGAAGGAAATTCTCACAGATAACAACATCCCTCATGGCCAGTGTGTCATCTGCCTCTATGGTTTCCAGGAGAAGGAGGCCTTTACCAAAACACCCTGTTACCACTACTTCCACTGCCACTGCCTTGCTCGGTACATCCAGCACATGGAGCAAGAGCTGAAGGCACAAGGACAGGAGCAGGAACAGGAACGGCAGCATGCTACAACCAAACAGAAGGCAGTCGGTGTGCAGTGTCCAGTGTGCAGAGAGCCCCTCGTGTATGATCTTGCCTCACTGAAAGCAGCCCCTGAACCCCAACAGCCCATGGAGCTGTACCAGCCCAGTGCAGAGAGCTTGCGCCAGCAAGAAGAACGCAAGCGGCTCTACCAGAGGCAGCAGGAGCGGGGGGGAATCATTGACCTTGAGGCTGAGCGAAACCGATACTTCATCAGCCTTCAGCAGCCTCCTGCCCCTGCGGAACCTGAGTCAGCTGTAGATGTCTCCAAAGGATCCCAACCACCCAGCACCCTTGCAGCAGAACTATCCACCTCACCAGCCGTCCAATCCACTTTGCCACCTCCTCTGCCTGTGGCGACCCAGCACATATGTGAGAAGATTCCAGGGACCAGGTCAAATCAGCAAAGGTTGGGCGAAACCCAGAAAGCTATGCTAGATCCCCCCAAGCCCAGTCGAGGTCCCTGGCGACAGCCCGAACGGAGGCACCCAAAGGGAGGGGAGTGCCACGCCCCTAAAGGTACCCGTGACACCCAGGAACTGCCACCTCCTGAGGGGCCCCTCAAGGAGCCCATGGACCTAAAGCCAGAACCCCATAGCCAAGGAGTTGAAGGTCCTCCACAAGAGAAGGGGCCTGGCAGCTGGCAGGGGCCCCCACCCCGCAGGACTCGGGACTGTGTTCGCTGGGAGCGCTCTAAGGGCCGGACACCCGGTTCTTCCTACCCTCGCCTGCCTCGGGGCCAGGGAGCATACCGGCCTGGTACTCGGAGGGAGTCCCTGGGCCTGGAATCTAAGGATGGTTCCTAGCAGGACTTGGTGGGGGGAACAGGGAATTGGGGATGGGAGGGAGGCAATAAAGATATTTGGCCTTCTTTGGCTTTCTTTGCTT
modifications: CDS (33)..(1409)
  Activity = (luciferase activity of the gene of each SEQ ID NO:)/(luciferase activity of pME18S-FL3): 11.5

B4: 293 (nucleic acid, listed as Homo sapiens)
chain: GAGCATACACCGAGAGAGTGAGGAGCCAGACGACAAGCACACACTATGGCGCTGAAACGGATTAATAAGGAACTTAGTGATTTGGCCCGTGACCCTCCAGCACAATGTTCTGCAGGTCCAGTTGGGGATGATATGTTTCATTGGCAAGCCACAATTATGGGACCTAATGACAGCCCATATCAAGGCGGTGTATTCTTTTTGACAATTCATTTTCCTACAGACTACCCCTTCAAACCACCTAAGGTTGCATTTACAACAAGAATTTATCATCCAAATATTAACAGTAATGGCAGCATTTGTCTCGATATTCTAAGATCACAGTGGTCGCCTGCTTTAACAATTTCTAAAGTTCTTTTATCCATTTGTTCACTGCTATGTGATCCAAACCCAGATGACCCCCTAGTGCCAGAGATTGCACGGATCTATAAAACAGACAGAGATAAGTACAACAGAATATCTCGGGAATGGACTCAGAAGTATGCCATGTGATGCTACCTTAAAGTCAGAATAACCTGCATTATAGCTGGAATAAACTTTAAATTACTGTTCCTTTTTTGATTTTCTTATCCGGCTGCTCCCCTGATCAGACCTCATCTTTTTTAATTTTATTTTTTGTTTACCTCCCTCCATTCATTCACATGCTCATCTGAGAAGACTTAAGTTCTTCCAGCTTTGACAATAACTGCTTTTAGAAACTGTAAAGTAGTTACAAGAGAACAGTTGG
modifications: CDS (46)..(486)
  Activity = (luciferase activity of the gene of each SEQ ID NO:)/(luciferase activity of pME18S-FL3): 25.8
